Measured values from patent publication US20070054848.

Target: recombinant full-length p21 (1-164 in SEQ ID NO: 23)
Sequence (chain, as listed by the source): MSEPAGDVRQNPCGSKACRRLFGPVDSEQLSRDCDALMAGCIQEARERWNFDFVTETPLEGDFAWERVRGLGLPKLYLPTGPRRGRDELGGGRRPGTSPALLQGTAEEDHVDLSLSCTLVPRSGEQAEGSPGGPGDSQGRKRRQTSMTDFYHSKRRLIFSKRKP

B1: Rho kinase fragment (aa 1-543, Upstate Biotechnology) (protein)
chain: MSRPPPTGKMPGAPETAPGDGAGASRQRKLEALIRDPRSPINVESLLDGLNSLVLDLDFPALRKNKNIDNFLNRYEKIVKKIKGLQMKAEDYDVVKVIGRGAFGEVQLVRHKASQKVYAMKLLSKFEMIKRSDSAFFWEERDIMAFANSPWVVQLFYAFQDDRYLYMVMEYMPGGDLVNLMSNYDVPEKWAKFYTAEVVLALDAIHSMGLIHRDVKPDNMLLDKHGHLKLADFGTCMKMDETGMVHCDTAVGTPDYISPEVLKSQGGDGFYGRECDWWSVGVFLYEMLVGDTPFYADSLVGTYSKIMDHKNSLCFPEDAEISKHAKNLICAFLTDREVRLGRNGVEEIRQHPFFKNDQWHWDNIRETAAPVVPELSSDIDSSNFDDIEDDKGDVETFPIPKAFVGNQLPFIGFTYYRENLLLSDSPSCRENDSIQSRKNEESQEIQKKLYTLEEHLSNEMQAKEELEQKCKSVNTRLEKTAKELEEEITLRKSVESALRQLEREKALLQHKNAEYQRKADHEADKKRNLENDVNSLKDQLEDL
For B1, the “Rho-kinase activity toward S6 kinase substrate peptide ([γ-32P] ATP, scintillation counting)” value was “the estimated IC50 value was 1.43 nM”.
